“And” between values parts separate entries of the source, which are not always exact repeats. Equal values may be shown once.
B1: anti-MiH antibody #1 (antibody, V domains shown)
VH: QVQLLESGPGLVAPSQTLSITCTVSGFSFTNYDLHWVRQPPGKGLEWLGVIWAVGSTNYNSALMSRLSISKDNSKSQVFLKMNSLQTDDTAIYYCAREEDYRYGMDYWGQGTSVTVSS
VL: ELVMTQSPLSLPVSLGDQASISCRSSQSLVHSNGNTYLHWYLQKPGQSPKLLIYKVSNRFSGVPDRFSGSGSGTDFTLKISRVEAEDLGVYFCSQSTHVPYTFGGGTKLEIK
B2: anti-MiH antibody #1-ADC (anti-MiH antibody #1 conjugated to an anthracycline-based cytotoxic payload) (antibody, V domains shown)
VH: QVQLLESGPGLVAPSQTLSITCTVSGFSFTNYDLHWVRQPPGKGLEWLGVIWAVGSTNYNSALMSRLSISKDNSKSQVFLKMNSLQTDDTAIYYCAREEDYRYGMDYWGQGTSVTVSS
VL: ELVMTQSPLSLPVSLGDQASISCRSSQSLVHSNGNTYLHWYLQKPGQSPKLLIYKVSNRFSGVPDRFSGSGSGTDFTLKISRVEAEDLGVYFCSQSTHVPYTFGGGTKLEIK
modifications: conjugated to an anthracycline-based cytotoxic payload (chain and site not stated)

How the values were obtained:
Experiment in all cases: cell-based or functional assay
[1] = target: CD19_IgG3_MiH3 CAR (FMC63 scFv, IgG3_MiH3 spacer, CD28tm, 4-1BB/CD3zeta) (human)
[2] = target: CD19_IgG3_MiH4 CAR (FMC63 scFv, IgG3_MiH4 spacer, CD28tm, 4-1BB/CD3zeta) (human)
[3] = target: CD19_IgG3_MiH5 CAR (FMC63 scFv, IgG3_MiH5 spacer, CD28tm, 4-1BB/CD3zeta) (human)
[4] = target: CD20_IgG3_MiH5/MiH3 CAR (advanced IgG3 format, Leu16 scFv)
[5] = target: R11_IgG3_MiH3 CAR (ROR1-specific R11 scFv, IgG3_MiH3 spacer)
[6] = target: R11_IgG3_MiH5/MiH3 CAR (advanced IgG3 format, ROR1-specific R11 scFv)
[7] = target: CD19_IgG3_MiH1 CAR (FMC63 scFv, IgG3_MiH1 spacer, CD28tm, 4-1BB/CD3zeta)
[8] = target: CD19_IgG3_MiH5/MiH1 CAR (advanced IgG3 format: FMC63 scFv with MiH5 linker between the variable domains, MiH1 …)
CD19_IgG3_MiH5/MiH1 CAR (advanced IgG3 format: FMC63 scFv with MiH5 linker between the variable domains, MiH1 …), sequence (chain, as listed by the source): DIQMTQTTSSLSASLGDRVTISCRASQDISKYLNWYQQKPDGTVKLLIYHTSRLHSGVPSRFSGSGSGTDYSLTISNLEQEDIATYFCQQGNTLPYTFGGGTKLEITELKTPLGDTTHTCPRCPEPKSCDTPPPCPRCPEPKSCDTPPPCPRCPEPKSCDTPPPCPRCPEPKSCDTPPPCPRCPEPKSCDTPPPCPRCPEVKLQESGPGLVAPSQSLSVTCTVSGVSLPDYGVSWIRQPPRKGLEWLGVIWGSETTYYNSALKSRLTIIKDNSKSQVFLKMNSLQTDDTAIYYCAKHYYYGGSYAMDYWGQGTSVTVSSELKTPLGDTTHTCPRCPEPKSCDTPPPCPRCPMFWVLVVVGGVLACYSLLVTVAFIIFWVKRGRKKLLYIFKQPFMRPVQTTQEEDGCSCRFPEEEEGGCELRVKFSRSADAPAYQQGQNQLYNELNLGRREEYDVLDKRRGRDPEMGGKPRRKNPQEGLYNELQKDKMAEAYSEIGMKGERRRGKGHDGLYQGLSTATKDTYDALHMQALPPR

CD19_IgG3_MiH5 CAR (FMC63 scFv, IgG3_MiH5 spacer, CD28tm, 4-1BB/CD3zeta) (human), sequence (chain, as listed by the source): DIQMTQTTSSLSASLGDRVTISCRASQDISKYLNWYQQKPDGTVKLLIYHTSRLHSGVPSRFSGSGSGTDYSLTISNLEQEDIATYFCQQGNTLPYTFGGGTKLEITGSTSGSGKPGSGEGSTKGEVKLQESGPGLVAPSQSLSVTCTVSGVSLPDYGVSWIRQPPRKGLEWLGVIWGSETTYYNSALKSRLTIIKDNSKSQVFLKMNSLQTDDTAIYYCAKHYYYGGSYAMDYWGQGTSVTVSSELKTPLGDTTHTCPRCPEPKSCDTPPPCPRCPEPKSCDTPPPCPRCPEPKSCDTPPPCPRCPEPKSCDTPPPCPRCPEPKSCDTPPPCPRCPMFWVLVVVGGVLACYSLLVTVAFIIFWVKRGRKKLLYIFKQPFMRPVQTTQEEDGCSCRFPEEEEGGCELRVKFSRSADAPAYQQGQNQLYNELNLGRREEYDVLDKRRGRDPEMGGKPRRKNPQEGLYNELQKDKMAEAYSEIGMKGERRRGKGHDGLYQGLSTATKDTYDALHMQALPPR
CD19_IgG3_MiH3 CAR (FMC63 scFv, IgG3_MiH3 spacer, CD28tm, 4-1BB/CD3zeta) (human), sequence (chain, as listed by the source): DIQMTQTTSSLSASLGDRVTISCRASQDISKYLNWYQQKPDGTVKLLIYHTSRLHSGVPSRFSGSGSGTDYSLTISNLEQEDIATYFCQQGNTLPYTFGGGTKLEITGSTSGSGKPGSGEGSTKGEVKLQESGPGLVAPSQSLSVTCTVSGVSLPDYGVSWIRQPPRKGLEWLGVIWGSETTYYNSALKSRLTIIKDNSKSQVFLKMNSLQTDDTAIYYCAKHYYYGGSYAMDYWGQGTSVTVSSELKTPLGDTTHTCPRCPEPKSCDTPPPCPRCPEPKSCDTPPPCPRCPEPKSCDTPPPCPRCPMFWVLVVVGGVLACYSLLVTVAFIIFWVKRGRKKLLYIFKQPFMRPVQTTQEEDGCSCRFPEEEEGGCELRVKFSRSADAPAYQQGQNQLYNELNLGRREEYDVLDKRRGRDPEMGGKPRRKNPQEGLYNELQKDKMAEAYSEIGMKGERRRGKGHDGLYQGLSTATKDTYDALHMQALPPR
CD19_IgG3_MiH4 CAR (FMC63 scFv, IgG3_MiH4 spacer, CD28tm, 4-1BB/CD3zeta) (human), sequence (chain, as listed by the source): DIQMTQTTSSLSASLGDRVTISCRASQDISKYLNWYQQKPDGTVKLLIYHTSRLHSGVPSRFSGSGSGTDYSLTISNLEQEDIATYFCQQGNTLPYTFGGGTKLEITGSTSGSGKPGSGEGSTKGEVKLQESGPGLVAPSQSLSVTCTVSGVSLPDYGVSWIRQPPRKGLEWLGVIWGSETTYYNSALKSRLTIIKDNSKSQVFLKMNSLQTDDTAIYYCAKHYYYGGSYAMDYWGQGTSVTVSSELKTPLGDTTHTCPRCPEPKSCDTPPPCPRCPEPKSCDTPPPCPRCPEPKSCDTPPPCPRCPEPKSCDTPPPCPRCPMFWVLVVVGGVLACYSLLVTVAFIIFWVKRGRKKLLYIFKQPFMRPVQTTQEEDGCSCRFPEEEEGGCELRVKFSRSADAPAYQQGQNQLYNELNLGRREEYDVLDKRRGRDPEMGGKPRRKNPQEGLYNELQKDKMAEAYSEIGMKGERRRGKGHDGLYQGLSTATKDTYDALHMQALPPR
R11_IgG3_MiH5/MiH3 CAR (advanced IgG3 format, ROR1-specific R11 scFv), sequence (chain, as listed by the source): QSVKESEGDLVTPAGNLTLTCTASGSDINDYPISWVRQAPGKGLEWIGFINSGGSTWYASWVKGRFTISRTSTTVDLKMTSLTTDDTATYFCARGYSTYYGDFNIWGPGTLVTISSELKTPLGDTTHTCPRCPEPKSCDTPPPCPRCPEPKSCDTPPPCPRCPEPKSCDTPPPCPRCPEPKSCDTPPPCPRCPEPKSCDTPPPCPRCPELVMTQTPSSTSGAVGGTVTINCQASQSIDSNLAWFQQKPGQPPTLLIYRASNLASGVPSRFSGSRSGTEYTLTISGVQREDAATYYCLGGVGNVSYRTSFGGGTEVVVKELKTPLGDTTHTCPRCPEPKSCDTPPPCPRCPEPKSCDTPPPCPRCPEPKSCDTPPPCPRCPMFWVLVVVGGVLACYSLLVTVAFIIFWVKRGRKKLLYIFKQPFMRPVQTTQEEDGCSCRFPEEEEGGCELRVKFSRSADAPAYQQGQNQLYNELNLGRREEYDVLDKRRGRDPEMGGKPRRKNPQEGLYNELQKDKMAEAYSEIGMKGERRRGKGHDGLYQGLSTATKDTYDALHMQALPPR
CD20_IgG3_MiH5/MiH3 CAR (advanced IgG3 format, Leu16 scFv), sequence (chain, as listed by the source): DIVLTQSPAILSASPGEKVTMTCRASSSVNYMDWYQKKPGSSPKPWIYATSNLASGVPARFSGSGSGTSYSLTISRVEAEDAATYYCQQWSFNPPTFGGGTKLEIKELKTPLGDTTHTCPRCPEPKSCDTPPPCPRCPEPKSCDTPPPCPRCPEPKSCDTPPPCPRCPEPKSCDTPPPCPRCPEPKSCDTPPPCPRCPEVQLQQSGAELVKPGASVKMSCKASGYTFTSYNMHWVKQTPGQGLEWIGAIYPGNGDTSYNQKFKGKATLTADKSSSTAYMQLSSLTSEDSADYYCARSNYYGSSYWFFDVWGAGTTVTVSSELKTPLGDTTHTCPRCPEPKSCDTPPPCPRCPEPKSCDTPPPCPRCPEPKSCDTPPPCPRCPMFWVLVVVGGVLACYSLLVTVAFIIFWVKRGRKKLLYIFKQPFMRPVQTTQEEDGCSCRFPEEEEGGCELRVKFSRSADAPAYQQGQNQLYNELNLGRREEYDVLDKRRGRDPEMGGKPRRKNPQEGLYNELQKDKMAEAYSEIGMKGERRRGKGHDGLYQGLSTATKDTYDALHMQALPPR
R11_IgG3_MiH3 CAR (ROR1-specific R11 scFv, IgG3_MiH3 spacer), sequence (chain, as listed by the source): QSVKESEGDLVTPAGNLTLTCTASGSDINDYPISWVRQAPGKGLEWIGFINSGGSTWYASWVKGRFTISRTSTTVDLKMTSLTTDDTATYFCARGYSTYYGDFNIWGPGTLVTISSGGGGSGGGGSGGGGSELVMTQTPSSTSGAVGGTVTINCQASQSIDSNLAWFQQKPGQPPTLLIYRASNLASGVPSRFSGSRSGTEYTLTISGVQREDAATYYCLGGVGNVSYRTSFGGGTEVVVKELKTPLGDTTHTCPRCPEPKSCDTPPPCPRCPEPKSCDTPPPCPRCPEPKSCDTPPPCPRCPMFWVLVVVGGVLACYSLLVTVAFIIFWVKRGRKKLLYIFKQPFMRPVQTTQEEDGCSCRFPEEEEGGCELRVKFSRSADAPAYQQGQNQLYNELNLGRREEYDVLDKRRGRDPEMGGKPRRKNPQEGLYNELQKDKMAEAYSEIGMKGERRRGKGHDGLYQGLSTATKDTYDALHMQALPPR
CD19_IgG3_MiH1 CAR (FMC63 scFv, IgG3_MiH1 spacer, CD28tm, 4-1BB/CD3zeta), sequence (chain, as listed by the source): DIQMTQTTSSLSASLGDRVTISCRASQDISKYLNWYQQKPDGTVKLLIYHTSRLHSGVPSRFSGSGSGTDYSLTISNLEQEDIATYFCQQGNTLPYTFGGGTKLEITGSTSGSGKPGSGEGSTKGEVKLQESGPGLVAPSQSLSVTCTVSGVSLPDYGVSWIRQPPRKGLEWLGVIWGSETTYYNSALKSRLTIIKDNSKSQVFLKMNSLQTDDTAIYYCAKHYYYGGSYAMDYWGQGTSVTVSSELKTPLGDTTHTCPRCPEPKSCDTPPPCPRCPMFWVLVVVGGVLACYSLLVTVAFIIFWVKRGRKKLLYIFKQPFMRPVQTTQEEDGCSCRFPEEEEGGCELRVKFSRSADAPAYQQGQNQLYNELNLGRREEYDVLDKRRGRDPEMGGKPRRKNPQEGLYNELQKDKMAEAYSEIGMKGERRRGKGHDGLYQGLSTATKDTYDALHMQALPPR

Binder	increase in CAR T cell numbers after 7 days of stimulation on plate-bound antibody [1]	expansion of CAR T cells after one week on plate-bound antibody [2]	expansion of CAR T cells after one week on plate-bound antibody [3]	ADC concentration with the told effect on viable CAR T cells (72 h) [4]	ADC concentration with the told effect on viable CAR T cells (72 h) [5]	ADC concentration with the told effect on viable CAR T cells (72 h) [6]	ADC concentration with the told effect on viable CAR T cells (72 h) [7]	ADC concentration with the told effect on viable CAR T cells (72 h) [1]	ADC concentration with the told effect on viable CAR T cells (72 h) [2]	ADC concentration with the told effect on viable CAR T cells (72 h) [3]	ADC concentration with the told effect on viable CAR T cells (72 h) [8]
B1	> 2 fold	4 fold	4 fold								
B2				500 ng/mL and 5000 ng/mL	500 ng/mL and 5000 ng/mL	500 ng/mL and 5000 ng/mL	10 µg/mL	5 µg/mL	5 µg/mL	50 ng/mL and 5000 ng/mL	5 µg/mL

From patent US20220306719A1 (JULIUS MAXIMILIANS UNIVERSIT T W RZBURG, published 2022)
